The target in the experiment is C1q. The experiment in a line: C1q binding assay, format not stated.

Usually EC50 stands for the concentration at which the effect is half-maximal. Higher therefore signals a less potent agent. Take rituximab (antibody): the 50% effective concentration (EC50) was found to be 0.9 µg/mL.

Values taken from US20250281608A1.
